The supplement of paper PMC7877785
± gives the uncertainty stated by the source.

Test: self-splicing fitness, log relative to wild type (ln ratio); higher = more splicing; Tetrahymena group I intron in knt gene, E. coli kanamycin selection, DiMSum; sequences stand for … in CUCUCU…GGAGGGAAAAGUUAUCAGGCAUGCACCUGGUAGCUAGUCUUUAAACCAAUAGAUUGCAUCGGUUUAAAAGGCAAGACCGUCAAAUUGCGGGAAAGGGGUCAACAGCCGUUCAGUACCAAGUCUCAGGGGAAACUUUGAGAUGGCCUUGCAAAGGGUAUGGUAAUAAGCUGACGGACAUGGUCCUAACCACGCAGCCAAGUCCUAAGUCAACAGAUCUUCUGUUGAUAUGGAUGCAGUUCACAGACUAAAUGUCGGUCGGGGAAGAUGUAUUCUUCUCAUAAGAUAUAGUCGGACCUCUCCUUAAUGGGAGCUAGCGGAUGAAGUGAUGCAACACUGGAGCCGCUGGGAACUAAUUUGUAUGCGAAAGUAUAUUGAUUAGUUUUGGAGUACUCGUGGUCG
Summary of the method: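 DiMSum derived fitness as the error-weighted combination of fold changes across replicates, kanamycin versus no kanamycin, normalised to wild type. E. coli BL21(DE3) held the library, which randomised all eight P1ex-region intron nucleotides within the knt kanamycin-resistance gene on pET-22b(+). Six replicate transformations grew overnight at 37°C or 30°C on LB agar with or without 25 μg/mL kanamycin, also containing 100 μg/mL carbenicillin, 50 μM IPTG and 0.2% rhamnose, and pooled colonies were amplicon-sequenced on an Illumina HiSeq 2500.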

Row | Sequence | self-splicing fitness (ln) (30 °C) | self-splicing fitness (ln) (37 °C)
1 | CUAGAGCAAUAUUACGACAU | -3.918 ± 0.03 | -2.71 ± 0.043
2 | AAUGAGCAAUAUUACGUUUU | -3.53 ± 0.16 | -2.15 ± 0.17
3 | UGCAAGCAAUAUUACGGGAG | -2.41 ± 0.096 | -1.71 ± 0.098
4 | UAAAAGCAAUAUUACGGAGC | -4.1 ± 0.25 | -3.36 ± 0.28
5 | GACUAGCAAUAUUACGGGUA | -0.752 ± 0.076 | -0.669 ± 0.078
6 | CAGAAGCAAUAUUACGCACA | -1.56 ± 0.077 | -0.438 ± 0.087
7 | GCGAAGCAAUAUUACGGACA | -0.834 ± 0.13 | -0.85 ± 0.13
8 | GCAGAGCAAUAUUACGGUGU | -4.3 ± 0.32 | -2.31 ± 0.16
9 | ACGAAGCAAUAUUACGUAUC | -4.38 ± 0.27 | -2.66 ± 0.22
10 | ACCCAGCAAUAUUACGUAUU | -1.93 ± 0.069 | -0.714 ± 0.077
11 | UAGAAGCAAUAUUACGAGAA | -1.7 ± 0.44 | -1.55 ± 0.35
12 | CCAAAGCAAUAUUACGAUAA | -3 ± 0.17 | -0.828 ± 0.18
13 | UGGUAGCAAUAUUACGCGAA | -0.913 ± 0.11 | -0.833 ± 0.11
14 | CUAAAGCAAUAUUACGCAAU | -3.94 ± 0.21 | -2.97 ± 0.24
15 | AUUGAGCAAUAUUACGCUGA | -3.1 ± 0.36 | -2.27 ± 0.29
16 | GGCCAGCAAUAUUACGAGCG | -0.269 ± 0.098 | 0.191 ± 0.13
17 | UGUAAGCAAUAUUACGUAUU | -2.86 ± 0.11 | -0.873 ± 0.083
18 | ACUUAGCAAUAUUACGCAAA | -3.03 ± 0.41 | -1.24 ± 0.25
19 | CGCCAGCAAUAUUACGUCCC |  | -2.37 ± 0.49
20 | GUGGAGCAAUAUUACGCGGG | -2.34 ± 0.36 | -2.06 ± 0.47
21 | GUGCAGCAAUAUUACGAAUG | -2.95 ± 0.16 | -2.01 ± 0.19
22 | GAACAGCAAUAUUACGAACG | -1.21 ± 0.1 | -0.566 ± 0.14
23 | GGGUAGCAAUAUUACGAAGU | -1.74 ± 0.23 | -1.57 ± 0.24
24 | CGGAAGCAAUAUUACGAUAA |  | -1.52 ± 0.25

Row | Sequence | self-splicing fitness (ln) (30 °C) | self-splicing fitness (ln) (37 °C)
25 | CCCAAGCAAUAUUACGGCGA | -3.88 ± 0.2 | -1.69 ± 0.17
26 | UAGCAGCAAUAUUACGACAA | -1.68 ± 0.12 | -0.157 ± 0.14
27 | CGACAGCAAUAUUACGCCAG | -1.73 ± 0.11 | -0.84 ± 0.13
28 | AUAUAGCAAUAUUACGAUAG | -2.39 ± 0.22 | -1.51 ± 0.24
29 | AAGGAGCAAUAUUACGACGC | -4.09 ± 0.43 | -1.13 ± 0.21
30 | CGCGAGCAAUAUUACGCAGA | -1.75 ± 0.22 | -1.77 ± 0.18
31 | UGAGAGCAAUAUUACGCUAU | -3.09 ± 0.35 | -1.48 ± 0.46
32 | CGCAAGCAAUAUUACGUAAG | -0.308 ± 0.067 | 0.113 ± 0.093
33 | UUACAGCAAUAUUACGAGAA | -1.83 ± 0.2 | -1.59 ± 0.2
34 | AACGAGCAAUAUUACGCAGU | -2.87 ± 0.23 | -2.52 ± 0.29
35 | UAAGAGCAAUAUUACGGCGG | -2.73 ± 0.22 | -1.62 ± 0.22
36 | UCUCAGCAAUAUUACGCGCA | -0.638 ± 0.16 | -0.617 ± 0.18
37 | AUCUAGCAAUAUUACGGCGU | -0.0812 ± 0.084 | 0.429 ± 0.1
38 | CCUUAGCAAUAUUACGUUUG | -3.99 ± 0.24 | -2.47 ± 0.18
39 | ACUUAGCAAUAUUACGACGC | -0.152 ± 0.066 | -0.0939 ± 0.072
40 | UCUAAGCAAUAUUACGUAGG | -1.65 ± 0.093 | -1.24 ± 0.15
41 | ACUUAGCAAUAUUACGUAUA | -3.22 ± 0.14 | -2.41 ± 0.16
42 | UCAUAGCAAUAUUACGGGGA | -1.54 ± 0.1 | -0.546 ± 0.12
43 | GGCUAGCAAUAUUACGUAAC | -0.594 ± 0.083 | -0.442 ± 0.11
44 | CAGAAGCAAUAUUACGCUAG | -2.82 ± 0.18 | -1.73 ± 0.2
45 | GCCAAGCAAUAUUACGUGAG | -1.17 ± 0.071 | -0.535 ± 0.084
46 | UACAAGCAAUAUUACGUCCC | -1.25 ± 0.39 | -1.58 ± 0.42
47 | GCUCAGCAAUAUUACGGUAA | -1.52 ± 0.13 | -0.551 ± 0.11
48 | UGAAAGCAAUAUUACGGGAC | -3.12 ± 0.24 | -2.31 ± 0.21
